Experimental findings from PMC4132019 are described below.

This test addresses CRM1-HA (chromosome region maintenance 1) (human (HeLa cell cDNA)) (UniProt O14980). Kind of test: pull-down.
UniProt O14980, sequence (O14980 whole entry): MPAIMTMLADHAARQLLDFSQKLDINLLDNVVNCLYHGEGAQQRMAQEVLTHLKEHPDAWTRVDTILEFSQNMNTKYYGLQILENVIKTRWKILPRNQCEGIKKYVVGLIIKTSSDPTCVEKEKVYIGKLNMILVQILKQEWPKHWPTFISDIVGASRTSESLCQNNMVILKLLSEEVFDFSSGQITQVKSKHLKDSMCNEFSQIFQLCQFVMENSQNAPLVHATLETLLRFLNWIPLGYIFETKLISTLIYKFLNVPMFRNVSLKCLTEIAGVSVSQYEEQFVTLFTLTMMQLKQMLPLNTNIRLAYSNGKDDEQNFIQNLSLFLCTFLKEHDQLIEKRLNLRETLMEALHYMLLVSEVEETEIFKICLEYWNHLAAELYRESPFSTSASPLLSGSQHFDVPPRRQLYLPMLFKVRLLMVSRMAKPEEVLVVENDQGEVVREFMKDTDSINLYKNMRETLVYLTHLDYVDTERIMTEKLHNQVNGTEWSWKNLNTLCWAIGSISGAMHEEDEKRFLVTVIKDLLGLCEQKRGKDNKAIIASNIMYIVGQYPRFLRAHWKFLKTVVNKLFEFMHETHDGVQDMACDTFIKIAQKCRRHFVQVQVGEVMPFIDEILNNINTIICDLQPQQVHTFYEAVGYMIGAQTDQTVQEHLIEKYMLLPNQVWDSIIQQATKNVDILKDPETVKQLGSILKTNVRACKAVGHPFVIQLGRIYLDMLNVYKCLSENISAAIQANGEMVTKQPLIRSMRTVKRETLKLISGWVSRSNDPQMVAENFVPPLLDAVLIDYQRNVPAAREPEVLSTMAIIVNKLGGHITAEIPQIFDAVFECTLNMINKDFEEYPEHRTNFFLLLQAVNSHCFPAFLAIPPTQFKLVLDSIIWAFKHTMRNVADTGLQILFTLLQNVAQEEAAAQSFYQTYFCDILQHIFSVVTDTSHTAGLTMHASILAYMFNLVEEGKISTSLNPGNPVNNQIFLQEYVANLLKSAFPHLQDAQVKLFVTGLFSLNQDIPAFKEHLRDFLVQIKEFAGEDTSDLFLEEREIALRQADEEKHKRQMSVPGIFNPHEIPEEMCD

In the case of “NP-FLAG (wild-type nucleoprotein of influenza A/WSN/33) (from UniProt P15682 1-498) (natural protein)”, the CRM1 binding (%WT) was 100 % of WT.
